Measurements as given in paper PMC7228087, “Atco, a yeast mitochondrial complex of Atp9 and Cox6, is an assembly intermediate of the ATP synthase” (PLoS ONE, 2020).

Target: T1, Cox6 with a tandem hemagglutinin plus protein C tag (S. cerevisiae, UniProt P00427 41-148)
T1 construct: Cox6, nuclear-encoded imported structural subunit of cytochrome oxidase, S. cerevisiae; also called Cox6-HAC; COX6-HAC; source: expressed in S. cerevisiae (cox6::URA3 trp1::pG71/ST9), in digitonin extract of mitochondria
T1 sequence (looked up): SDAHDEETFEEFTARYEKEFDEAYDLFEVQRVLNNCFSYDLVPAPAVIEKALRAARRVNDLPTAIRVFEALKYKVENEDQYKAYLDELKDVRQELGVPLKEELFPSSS
Test: co-IP; as a1 but from an oxa1 null mutant expressing Cox6-HAC; radiolabel quantified as ratio to the OXA1 strain
Conditions: partners not purified

B1: Atp9 (natural protein, UniProt P61829 1-76, looked up)
chain: MQLVLAAKYIGAGISTIGLLGAGIGIAIVFAALINGVSRNPSIKDTVFPMAILGFALSEATGLFCLMVSFLLLFGV
notes: Atp9, mitochondrially encoded subunit of the ATP synthase ring, S. cerevisiae; wild type with native cysteine at residue 65; The introduction says that the ring of the ATP synthase has 10 copies of Atp9; In Atco the protein is oligomeric but not a ring; also called A9; Atp9 ring; source: submitochondrial particles for Western blots
  ratio (Δoxa1/OXA1) of radiolabel in the PC eluate, SDS-PAGE: 0.124 ratio
